Holding throughout (test): ELISA
A general note: An ELISA detects its analyte on a solid surface through an enzyme-linked reagent.

The target of experiment [1] is C4BP α-chain deletant ΔCCP1 (human) (UniProt P04003).
The target in experiment [2] is C4BP α-chain deletant ΔCCP2 (human) (UniProt P04003).
Experiment [3] deals with C4BP α-chain deletant ΔCCP3 (human) (UniProt P04003).
The target in experiment [4] is C4BP α-chain deletant ΔCCP4 (human) (UniProt P04003).
Experiment [5] deals with C4BP α-chain deletant ΔCCP5 (human) (UniProt P04003).
Experiment [6] addresses C4BP α-chain deletant ΔCCP6 (human) (UniProt P04003).
Experiment [7] has as its target C4BP α-chain deletant ΔCCP7 (human) (UniProt P04003).
The target of experiment [8] is C4BP α-chain deletant ΔCCP8 (human) (UniProt P04003).
The target in experiment [9] is C4BP α-chain deletant ΔCCP4 (human) (UniProt P04003). The source holds these as a separate data set.
Experiment [10] concerns the target C4BP α-chain deletant ΔCCP5 (human) (UniProt P04003). The source holds these as a separate data set.

Read-outs that look alike come from different tables or passages of the source.

Consider “Influenza A virus A/England/2009 (H1N1), whole virus particles (complex)”, for which the percent loss of binding against full-length C4BP is 20% in experiment [1]; 20% in [2]; 60% in experiment [4]; 60% in experiment [5]; 49% in experiment [7]; 75% in experiment [8]. Also, the percent loss of binding against full-length C4BP in [9] and in experiment [10] was 67% in each case. For the same substance, the percent increase of binding against full-length C4BP in experiment [3] and in experiment [6] was 10% throughout.
Regarding “Influenza A virus A/HK/99 (H3N2), whole virus particles (complex)”, the percent loss of binding against full-length C4BP in experiment [1] was determined as 80%; in [2] it was 80%; in experiment [4], 80%; in [5], 80%; in experiment [7], 62%; in [8] it was 75%. Moreover, the percent increase of binding against full-length C4BP in experiment [3] and in [6] was 10% throughout.

Source of the values: article PMC7820937.
